Reference: patent US8889126B2, “Methods and compositions for treating neuropathies” (Washington University, priority 2004, dated 2014)

B1: dominant-negative Ufd2a mutant: Ufd2a containing a point mutation (P1140A) that inhibits wild-type Ufd2a function (protein, UniProt Q9ES00 1-1173, looked up, variant P1140A)
Ubiquitin conjugation factor …: MEELSADEIRRRRLARLAGGQTSQPTTPLTSPQRENPPGPPIAASAPGPSQSLGLNVHNMTPATSPIGAAGVAHRSQSSEGVSSLSSSPSNSLETQSQSLSRSQSMDIDGVSCEKSMSQVDVDSGIENMEVDENDRREKRSLSDKEPSSGPEVSEEQALQLVCKIFRVSWKDRDRDVIFLSSLSAQFKQNPKEVFSDFKDLIGQILMEVLMMSTQTRDENPFASLTATSQPIATAARSPDRNLMLNTGSSSGTSPMFCNMGSFSTSSLSSLGASGGASNWDSYSDHFTIETCKETDMLNYLIECFDRVGIEEKKAPKMCSQPAVSQLLSNIRSQCISHTALVLQGSLTQPRSLQQPSFLVPYMLCRNLPYGFIQELVRTTHQDEEVFKQIFIPILQGLALAAKECSLESDYFKYPLMALGELCETKFGKTHPMCNLVASLPLWLPKSLSPGSGRELQRLSYLGAFFSFSVFAEDDAKVVEKYFSGPAITLENTRVVSQSLQHYLELGRQELFKILHSILLNGETREAALSYMAALVNANMKKAQMQADDRLVSTDGFMLNLLWVLQQLSTKIKLETVDPTYIFHPRCRITLPNDETRINATMEDVNERLTELYGDQPPFSEPKFPTECFFLTLHAHHLSILPSCRRYIRRLRAIRELNRTVEDLKNNESQWKDSPLATRHREMLKRCKTQLKKLVRCKACADAGLLDESFLRRCLNFYGLLIQLMLRILDPAYPDVTLPLNSEVPKVFAALPEFYVEDVAEFLFFIVQYSPQVLYEPCTQDIVMFLVVMLCNQNYIRNPYLVAKLVEVMFMTNPSVQPRTQKFFEMIENHPLSTKLLVPSLMKFYTDVEHTGATSEFYDKFTIRYHISTIFKSLWQNIAHHGTFMEEFNSGKQFVRYINMLINDTTFLLDESLESLKRIHEVQEEMKNKEQWDQLPRDQQQARQSQLAQDERVSRSYLALATETVDMFHLLTKQVQKPFLRPELGPRLAAMLNFNLQQLCGPKCRDLKVENPEKYGFEPKKLLDQLTDIYLQLDCARFAKAIADDQRSYSKELFEEVISKMRKAGIKSTIAIEKFKLLAEKVEEIVAKNARAEIDYSDAPDEFRDPLMDTLMTDPVRLPSGTVMDRSIILRHLLNSPTDAFNRQMLTESMLEPVPELKEQIQAWMREKQSSDH
B2: NMNAT1: nicotinamide mononucleotide adenylyltransferase1, murine, lentivirally expressed (protein, UniProt Q9EPA7 1-285, looked up)
Nicotinamide/nicotinic acid …: MDSSKKTEVVLLACGSFNPITNMHLRLFELAKDYMHATGKYSVIKGIISPVGDAYKKKGLIPAHHRIIMAELATKNSHWVEVDTWESLQKEWVETVKVLRYHQEKLATGSCSYPQSSPALEKPGRKRKWADQKQDSSPQKPQEPKPTGVPKVKLLCGADLLESFSVPNLWKMEDITQIVANFGLICITRAGSDAQKFIYESDVLWRHQSNIHLVNEWITNDISSTKIRRALRRGQSIRYLVPDLVQEYIEKHELYNTESEGRNAGVTLAPLQRNAAEAKHNHSTL
modifications: lentivirally expressed
B3: NmPRT: nicotinamide phosphoribosyltransferase, expressed in neurons (protein, UniProt Q99KQ4 1-491, looked up)
Nicotinamide …: MNAAAEAEFNILLATDSYKVTHYKQYPPNTSKVYSYFECREKKTENSKVRKVKYEETVFYGLQYILNKYLKGKVVTKEKIQEAKEVYREHFQDDVFNERGWNYILEKYDGHLPIEVKAVPEGSVIPRGNVLFTVENTDPECYWLTNWIETILVQSWYPITVATNSREQKKILAKYLLETSGNLDGLEYKLHDFGYRGVSSQETAGIGASAHLVNFKGTDTVAGIALIKKYYGTKDPVPGYSVPAAEHSTITAWGKDHEKDAFEHIVTQFSSVPVSVVSDSYDIYNACEKIWGEDLRHLIVSRSTEAPLIIRPDSGNPLDTVLKVLDILGKKFPVTENSKGYKLLPPYLRVIQGDGVDINTLQEIVEGMKQKKWSIENVSFGSGGALLQKLTRDLLNCSFKCSYVVTNGLGVNVFKDPVADPNKRSKKGRLSLHRTPAGNFVTLEEGKGDLEEYGHDLLHTVFKNGKVTKSYSFDEVRKNAQLNIEQDVAPH

Legend:
DRG explant neurons = test: in vitro Wallerian degeneration assay: DRG explant cultures, axonal transection by removal of neuronal cell bodies; assay type: cell-based, mouse; details: lentivirus-infected DRG neurons
Protocol: (§1) To identify the mechanism of delayed axonal degeneration mediated by the Wld^s protein, we employed an in-vitro Wallerian degeneration model. Primary DRG explant neurons were infected with lentivirus expressing the appropriate proteins, and axons were injured by either removal of the neuronal cell body (transection) or growth in vincristine (toxic).
Mouse DRG explants from E12.5 embryos were cultured in the presence of 1 nM nerve growth factor. Non-neuronal cells were removed from the cultures by adding 5-fluorouracil to the culture medium. Transection of neurites was performed at 10-20 DIV using an 18-gauge needle to remove the neuronal cell bodies. […]
Lentiviral expression vectors were generated using HEK293T cells as described above. […] These lysates were analyzed by immunoblot to using anti-His tag monoclonal antibody (Qiagen) to detect expression of the respective hexahistidine-tagged proteins. […]
Quantitative analysis of axonal degeneration was performed as previously described (Zhai, et al., Neuron 39:217-25, 2003). […] Axons with a fragmented, non-refractile appearance were designated as “degenerated.” At each time point, at least 200 singly distinguishable axons were blindly scored from several randomly taken images of each culture. […]
Cell culture, in vitro axotomy, and quantification of axonal degeneration. […] Quantitative analysis of neurite degeneration was performed.

DRG neurons = test: overall cellular NAD levels in DRG neurons by microscale enzymatic assays; assay type: cell-based; details: NMNAT1 expressing vs wild type DRG neurons
Text: Similarly, most enzymes that make up the NAD salvage pathway in yeast are also compartmentalized in the nucleus. […] Furthermore, levels of tissue NAD in the brains of wild type and wld^s mice are similar despite the increased levels of NMNAT activity in wld^s mice (Mack, et al., Nat Neurosci, 4:1199-206, 2001).

DRG neuronal explant = test: vincristine-induced axonal degeneration in DRG neuronal explants; assay type: cell-based, mouse; details: 0.5 μM vincristine for up to 9 d, lentiviral expression
Protocol: as §1
Quantitative analysis of axonal degeneration was performed as previously described (Zhai, et al., Neuron 39:217-25, 2003). Briefly, the cultures were examined using phase contrast microscopy at the indicated times. Axons with a fragmented, non-refractile appearance were designated as “degenerated.” At each time point, at least 200 singly distinguishable axons were blindly scored from several randomly taken images of each culture. […] For calculations of neurite-covered area, digitally captured images from quadruplicate samples of two independent experiments were analyzed using analysis 3.1 software (Soft Imaging System, Lakewood, Colo.).
In addition to mechanical transection, axonal protection in wld^s mice is also observed against other damaging agents such as ischemia and toxins (Coleman, et al., Trends Neurosci 25:532-37, 2002; Gillingwater, et al., J Cereb Blood Flow Metab 24:62-66, 2004). […] FIG. 2C illustrates protein expression in lentivirus-infected cells detected by immunoblot analysis using antibodies to the 6×His tag. […]

Molecule	axonal degeneration after transection in neurons expressing the construct (DRG explant neurons)	overall cellular NAD levels (DRG neurons)	axon length and refractility in vincristine (DRG neuronal explant)
B1	neither of these methods resulted in delayed axonal degradation		
B2		no changes in overall cellular NAD levels were found	maintained their original length and refractility
B3	shows axonal protection		
